Measured values taken from paper PMC6699766.
Read-outs that look alike come from different tables or passages of the source.

Tests used:
[1] = target: photosystem I complex of Prochlorococcus marinus ecotype MED4 (Prochlorococcus marinus MED4 (endogenous in thylakoid membranes)); test: atomic force microscopy
[2] = target: photosystem I complex of Prochlorococcus marinus ecotype MED4 (Prochlorococcus marinus MED4 (endogenous in thylakoid membranes)); test: atomic force microscopy; remark: listed apart in the source
[3] = target: photosystem I complex of Prochlorococcus marinus ecotype MIT9313 (Prochlorococcus marinus MIT9313 (endogenous in thylakoid membranes)); test: atomic force microscopy
[4] = target: photosystem I complex of Prochlorococcus marinus ecotype SS120 (Prochlorococcus marinus SS120 (endogenous in thylakoid membranes)); test: atomic force microscopy
[5] = target: photosystem I complex of Synechocystis sp. PCC 6803; test: negative stain TEM

photosystem I complex of Prochlorococcus marinus ecotype MED4
stoichiometry N [1]: 3
ratio of PSI monomer equivalents in trimeric vs monomeric or dimeric PSI [2]: 5.3
stoichiometry N [2]: 2

photosystem I complex of Prochlorococcus marinus ecotype MIT9313
ratio of trimeric to non-trimeric PSI [3]: 44.5
stoichiometry N [3]: 3

photosystem I complex of Prochlorococcus marinus ecotype SS120
stoichiometry N [4]: 3

photosystem I complex of Synechocystis sp. PCC 6803
stoichiometry N [5]: 3
